Measurements: patent US11260100B2, “Compositions targeting the interaction domain between p27Kip1 and Brk and methods of use thereof to inhibit p27 Y phosphorylation and cdk4 activity” (The Research Foundation for the State University of New York, priority 2014, dated 2022)

Columns and labels:
[1] = test system: MCF7-ALT cells; experiment: Long-term proliferation arrest at IC100 (FIG. 15A); format: cell-based, human; settings: IC100 Palbociclib, doxycycline induced ALT, replenished every two days
Protocol: FIGS. 15A-15C: ALT and PD treatment increases senescence, a clinical goal. FIG. 15A: MCF7-ALT cells were treated with IC100 concentration of Palbociclib (PD) or doxycycline to induce ALT. Drugs were replenished every two days and proliferation was determined by cell counting as indicated. Proliferation rates were standardized to the rate of proliferation seen in DMSO treated cells (control). PD treated cells were arrested for 10 days, before escape (proliferation) was detected. ALT expressing cells were arrested for 18 days before escape (proliferation) was detected. ALT expressing and PD treated cells were arrested for 30 days, with no escape detected. […] Proliferation was assessed by counting. […] Viability was measured by trypan blue staining and the ALT expressing, PD treated cells that weren't growing were viable. […]
MCF7-ALT cells were treated with a IC100 concentration of Palbociclib (PD) or doxycycline to induce ALT. Drugs were replenished every two days and proliferation was determined by cell counting as indicated. […] PD treated cells were arrested for 10 days, before escape (proliferation) was detected. ALT expressing cells were arrested for 18 days before escape (proliferation) was detected. ALT expressing and PD treated cells were arrested for 30 days, with no escape detected. […] Proliferation was assessed by counting. […]

[2] = test system: MCF-7 inducible ALT cells; experiment: Mouse xenograft model, MCF7-ALT tumors; format: in vivo, NOD/SCID mice; settings: day 17; start volume 200 mm3; Palbociclib 100 mg/kg daily gavage, doxycycline 0.1 mg/ml in drinking water
Protocol: FIG. 14: ALT slows tumor growth in animals, and ALT and PD dual treatment causes tumor regression. MCF-7 inducible ALT cells were injected into the 4th mammary gland of NOD/SCID mice. Tumors were allowed to develop to a volume of 200 mm3, before treatment. Vehicle: daily gavage with PBS. PD: Daily gavage of Palbociclib 100 mg/kg. Doxy: 0.1 mg/ml doxycycline added to the drinking water to allow continuous uptake and induction of ALT in the human cancer cells. Doxy+PD: Daily gavage of Palbociclib 100 mg/kg and 0.1 mg/ml doxycycline added to the drinking water. Vehicle treated animals rapidly progressed and by 17 days, tumor volumes were >3000 mm PD treatment slowed down tumor growth but by day 17, tumors were >2500. […] However, dual ALT and PD (doxy/PD) treatment, caused tumor regression by […] (e.g., from 200 mm3 down to 0-40 mm3), by day 5, which was durable up to day 19.
NP-ALT was added to cell media in the absence of fetal bovine serum for 6 hours. This media was removed and replaced with FBS+media, and cells were allowed to recover for 2 days, at which time, cell counts were determined. Counts were standardized to the proliferation seen in the NO FBS untreated control. • Expression in vivo. […] Tumor volume was monitored every other day using digital calipers. […] Doxy+PD: Daily gavage of Palbociclib 100 mg/kg and 0.1 mg/ml doxycycline added to the drinking water. • Quantitative RT-PCR. […]

B1: Alt-Brk: alternative splice variant of Brk (SEQ ID NO: 17), 15 KD protein with SH3 domain, lacks kinase domain (protein, listed as Homo sapiens)
chain: MVSRDQAHLGPKYVGLWDFKSRTDEELSFRAGDVFHVARKEEQWWWATLLDEAGGAVAQGYVPHNYLAERETVESEPAGHAGCAALQDLAACRGPAAPERGGVLPQPARACELPQGPEPVPRPAAGRALPEARA
Question: Which results are given for B1?
Answer: time arrested before escape (proliferation) [1]: 18 days; tumor volume [2]: ~1500 mm3
